Target: EpCAM (epithelial cell adhesion molecule) on cells (UniProt P16422)
Experiment: cell-based or functional assay

Chain of UniProt P16422 (P16422 24-314 limits assumed): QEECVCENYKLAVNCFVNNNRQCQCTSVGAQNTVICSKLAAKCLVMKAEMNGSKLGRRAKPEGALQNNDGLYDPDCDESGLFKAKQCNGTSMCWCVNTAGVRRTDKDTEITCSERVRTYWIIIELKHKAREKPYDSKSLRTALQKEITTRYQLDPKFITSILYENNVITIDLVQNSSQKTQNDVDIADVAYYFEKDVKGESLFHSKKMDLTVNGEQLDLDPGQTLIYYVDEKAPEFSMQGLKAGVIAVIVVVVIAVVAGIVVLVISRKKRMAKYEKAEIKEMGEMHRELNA

B1: EpCAMscFv-HveA adapter (fused protein of scFv for EpCAM and HveA82 extracellular domain of HVEM) (protein)
chain: DIQMTQSPSSLSASVGDRVTITCRSTKSLLHSNGITYLYWYQQKPGKAPKLLIYQMSNLASGVPSRFSSSGSGTDFTLTISSLQPEDFATYYCAQNLEIPRTFGQGTKVELKRATPSHNSHQVPSAGGPTANSGTSGSEVQLVQSGPGLVQPGGSVRISCAASGYTFTNYGMNWVKQAPGKGLEWMGWINTYTGESTYADSFKGRFTFSLDTSASAAYLQINSLRAEDTAVYYCARFAIKGDYWGQGTLLTVSSGGGGSEFLPSCKEDEYPVGSECCPKCSPGYRVKEACGELTGTVCEPCPPGTYIAHLNGLSKCLQCQMCDPAMGLRASRNCSRTENAVCGHHHHHH
- cell viability of BT-474 cells 5 days after infection with EADa-S virus: 34%
- cell viability of MCF-7 cells 5 days after infection with EADa-S virus: 31%
- cell viability of MDA-MB-453 cells 5 days after infection with EADa-S virus: 19%

From patent US20220305066A1
